Test [1] deals with T1, Recombinant human LILRB2 protein (ELISA antigen) (human, UniProt Q8N423 22-460).
T1 construct: also called LILRB2-His; recombinant LILRB2
Briefly: ELISA, plate-coated recombinant human LILRB2. The procedure: To confirm binding to human and cynomolgus LILRB2, antibodies in supernatants were evaluated for binding by enzyme-linked immunosorbent assay (ELISA). Recombinant LILRB2 proteins (human: SEQ ID NO: 48; cynomolgus) were diluted in PBS to 2 μg/mL and added to 384-well high-binding ELISA plates (Greiner Bio-One Microlon™) at 25 μL/well and incubated at 4° C. overnight. The plates were washed three times with Wash Buffer (0.05% Tween® 20 in PBS), using a microplate washer and then blocked with 90 μL/well of ELISA Blocking Buffer A (1% BSA in PBS) for 1 hour at room temperature (RT). After blocking, 25 μL/well of LILRB2 antibodies or isotype control were added to the plates and incubated for 1 hour at RT. After primary antibody binding, plates were washed three times with Wash Buffer using a microplate washer. Secondary detection antibody (HRP-goat anti-rabbit Fab fragment) was diluted to 1:3000 in assay diluent (1% BSA in PBS) and 25 μL/well was added to plates and incubated at RT protected from light for 1 hour. Following incubation, plates were washed four times with Wash Buffer, using a microplate washer. […] After development, the reaction was stopped by addition of 25 μL/well of 0.3 M HCl, and plates were read using an EnVision (Perkin Elmer) microplate reader at 450 nm. EC₅₀ values were calculated based on log concentration of the primary antibodies at optical density at 450 nm.
A general note: ELISA stands for enzyme-linked immunosorbent assay.

Test [2] deals with T2, Human LILRB2 on stably transduced HEK293T cells (human, UniProt Q8N423 22-597).
T2 construct: Lentiviral transduction (G&P Biosciences LTV2992); also called HEK293T-LILRB2; LILRB2-expressing HEK293T cells
Briefly: flow cytometry, HEK293T cells stably expressing human LILRB2. On the procedure: To confirm binding of LILRB2 antibodies, flow cytometry binding assays were performed using HEK293T cells stably expressing human LILRB2 (Example 3). […] The B2A-IgG1 and B2A-IgG4 chimeras bound the LILRB2-expressing HEK293T cells, with equivalent EC₅₀ values of 0.21 nM and 0.30 nM respectively.
Select humanized variant antibodies were purified and tested for their ability to bind human LILRB2 by ELISA, using the method described in Example 2, and binding to HEK293T cells expressing human LILRB2, using the method described in Example 4. Representative data are shown for IgG4 variants in Table 6.
(A flow cytometer gives signals particle by particle.)

Test [3] addresses T1, Recombinant human LILRB2 protein (ELISA …). Nature of the test: ELISA, immobilized LILRB2-His; conditioned media of transient transfections. On the procedure: To confirm binding to human and cynomolgus LILRB2, antibodies in supernatants were evaluated for binding by enzyme-linked immunosorbent assay (ELISA). Recombinant LILRB2 proteins (human: SEQ ID NO: 48; cynomolgus) were diluted in PBS to 2 μg/mL and added to 384-well high-binding ELISA plates (Greiner Bio-One Microlon™) at 25 μL/well and incubated at 4° C. overnight. The plates were washed three times with Wash Buffer (0.05% Tween® 20 in PBS), using a microplate washer and then blocked with 90 μL/well of ELISA Blocking Buffer A (1% BSA in PBS) for 1 hour at room temperature (RT). After blocking, 25 μL/well of LILRB2 antibodies or isotype control were added to the plates and incubated for 1 hour at RT. After primary antibody binding, plates were washed three times with Wash Buffer using a microplate washer. Secondary detection antibody (HRP-goat anti-rabbit Fab fragment) was diluted to 1:3000 in assay diluent (1% BSA in PBS) and 25 μL/well was added to plates and incubated at RT protected from light for 1 hour. Following incubation, plates were washed four times with Wash Buffer, using a microplate washer. After removal of the final wash, 25 μL/well of 1-Step™ Ultra TMB-ELISA Substrate Solution (Thermo Fisher, No. 34028) was added and plates were incubated for 5-10 min at RT, protected from light. After development, the reaction was stopped by addition of 25 μL/well of 0.3 M HCl, and plates were read using an EnVision (Perkin Elmer) microplate reader at 450 nm. EC₅₀ values were calculated based on log concentration of the primary antibodies at optical density at 450 nm.
Twenty-five IgG4 variants were expressed in mammalian cell culture as a combinatorial library of the five light and five heavy chains. In addition, B2A-IgG4 was included as a transfection control. The conditioned media from these transient transfections were assayed for human IgG concentration. A plate-based ELISA (see Example 2) was performed in which LILRB2-His was immobilized, and binding of humanized mAb variants was detected via an anti-human IgG4 HRP-labeled secondary antibody. The parental rabbit/human chimera clone transfection served as the benchmark EC₅₀ positive control.

The target of test [4] is T3, LILRB2-Fc protein (human, UniProt Q8N423 22-460, limits assumed).
T3 construct: also called human LILRB2-Fc; not shown: Fc part
Briefly: blocking ELISA: LILRB2-Fc pre-incubated with antibody titration, binding to coated monomer HLA-G. On the procedure: Tumor-associated HLA-G is an HLA Class I ligand for LILRB2. Binding of HLA-G to LILRB2 induces an immune suppressive signal in LILRB2 expressing myeloid cells. To determine if the anti-LILRB2 antibodies block the HLA-G-LILRB2 interaction and prevent the induction of an inhibitory signal, blocking ELISA assays in a dose titration were performed. 384-well plates were coated with monomer HLA-G (Fred Hutchinson Cancer Research Center, No. bHLA-G) at a concentration of 5 μg/mL, diluted in PBS, then plates were incubated at RT for 1 hour. Plates were rinsed with Wash Buffer three times, then blocked with Blocking Buffer A for 30 minutes at RT. During blocking incubation step, LILRB2-Fc protein and antibody titrations were prepared in Blocking Buffer A. LILRB2-Fc protein was then incubated with antibody titrations for 30 minutes at RT to allow for binding prior to addition onto plate. Plates were rinsed three times with Wash Buffer, then 25 μL of protein/antibody mixture was added per well and incubated for 1 hour at RT. Following antibody incubation, plates were washed three times with Wash Buffer. Anti-human IgG Fc-HRP secondary antibody was diluted and added at 25 μL/well. Plates were incubated in the dark for 1 hour at RT. Following secondary antibody incubation, plates were washed four times with Wash Buffer. […] Absorbance was read at 450 nm using the Envision. […]

T1 sequence (Q8N423 other isoform, or with tags, fused parts or gaps limits assumed): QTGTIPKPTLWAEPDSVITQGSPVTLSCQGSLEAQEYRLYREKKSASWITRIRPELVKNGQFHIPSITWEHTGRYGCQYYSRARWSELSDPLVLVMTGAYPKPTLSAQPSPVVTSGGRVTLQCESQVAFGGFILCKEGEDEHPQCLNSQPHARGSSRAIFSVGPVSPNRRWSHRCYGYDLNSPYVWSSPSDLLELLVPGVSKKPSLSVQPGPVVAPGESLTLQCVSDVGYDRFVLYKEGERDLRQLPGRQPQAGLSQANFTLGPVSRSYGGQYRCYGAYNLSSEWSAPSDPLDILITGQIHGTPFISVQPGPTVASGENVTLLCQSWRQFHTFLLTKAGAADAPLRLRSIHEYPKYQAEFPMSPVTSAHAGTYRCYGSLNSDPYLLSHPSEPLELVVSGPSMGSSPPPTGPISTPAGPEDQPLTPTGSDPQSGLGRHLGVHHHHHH
T2 sequence (Q8N423 other isoform, or with tags, fused parts or gaps limits assumed): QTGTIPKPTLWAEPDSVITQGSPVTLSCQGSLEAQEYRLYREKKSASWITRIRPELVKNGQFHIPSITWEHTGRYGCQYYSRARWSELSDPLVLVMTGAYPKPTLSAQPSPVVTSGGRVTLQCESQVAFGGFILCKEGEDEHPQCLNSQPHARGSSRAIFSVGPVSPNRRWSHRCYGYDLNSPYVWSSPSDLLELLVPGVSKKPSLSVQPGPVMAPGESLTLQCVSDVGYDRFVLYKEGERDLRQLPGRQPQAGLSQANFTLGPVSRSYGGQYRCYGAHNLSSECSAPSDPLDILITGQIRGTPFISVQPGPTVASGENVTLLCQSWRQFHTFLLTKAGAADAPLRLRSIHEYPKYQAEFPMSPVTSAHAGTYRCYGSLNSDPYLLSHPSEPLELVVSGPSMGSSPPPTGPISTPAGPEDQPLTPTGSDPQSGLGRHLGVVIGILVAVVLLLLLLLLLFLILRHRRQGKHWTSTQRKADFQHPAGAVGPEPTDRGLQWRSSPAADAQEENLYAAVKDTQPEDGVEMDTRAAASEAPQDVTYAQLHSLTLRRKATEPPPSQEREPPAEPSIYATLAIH
T3 sequence (Q8N423 22-460 limits assumed): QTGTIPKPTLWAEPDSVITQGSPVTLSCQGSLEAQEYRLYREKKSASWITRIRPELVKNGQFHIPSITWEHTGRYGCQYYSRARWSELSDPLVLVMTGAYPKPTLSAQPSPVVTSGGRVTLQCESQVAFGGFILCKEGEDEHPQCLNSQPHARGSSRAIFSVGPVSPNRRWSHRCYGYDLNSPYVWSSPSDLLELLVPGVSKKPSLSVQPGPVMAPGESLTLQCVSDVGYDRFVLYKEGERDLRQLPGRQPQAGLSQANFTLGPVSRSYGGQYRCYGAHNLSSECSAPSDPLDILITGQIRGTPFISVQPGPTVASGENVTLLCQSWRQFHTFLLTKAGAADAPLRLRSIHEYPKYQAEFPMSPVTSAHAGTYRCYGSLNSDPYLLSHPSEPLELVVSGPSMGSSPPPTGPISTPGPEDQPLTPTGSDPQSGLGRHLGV

B1: B2A-IgG1 (antibody)
heavy: not shown
light: DVVMTQTPSSVSAALGGTVTIKCQASQSIGSNLAWYQLKPGQRPKLLIYAAATLASGGSSRFKGSGSGTDFTLTISDLECADAATYYCQSYVSGSSDVAFGGGTEVVVKRTVAAPSVFIFPPSDEQLKSGTASVVCLLNNFYPREAKVQWKVDNALQSGNSQESVTEQDSKDSTYSLSSTLTLSKADYEKHKVYACEVTHQGLSSPVTKSFNRGEC
notes: Rabbit variable regions on human IgG1 / kappa constant regions; AF647-conjugated in some flow assays; also called B2A-IgG1 chimera; anti-LILRB2 B2A-IgG1
In the case of B1, the EC50 in test [1] was 3.81 ng/mL.

B2: B2A-IgG4 (antibody)
heavy: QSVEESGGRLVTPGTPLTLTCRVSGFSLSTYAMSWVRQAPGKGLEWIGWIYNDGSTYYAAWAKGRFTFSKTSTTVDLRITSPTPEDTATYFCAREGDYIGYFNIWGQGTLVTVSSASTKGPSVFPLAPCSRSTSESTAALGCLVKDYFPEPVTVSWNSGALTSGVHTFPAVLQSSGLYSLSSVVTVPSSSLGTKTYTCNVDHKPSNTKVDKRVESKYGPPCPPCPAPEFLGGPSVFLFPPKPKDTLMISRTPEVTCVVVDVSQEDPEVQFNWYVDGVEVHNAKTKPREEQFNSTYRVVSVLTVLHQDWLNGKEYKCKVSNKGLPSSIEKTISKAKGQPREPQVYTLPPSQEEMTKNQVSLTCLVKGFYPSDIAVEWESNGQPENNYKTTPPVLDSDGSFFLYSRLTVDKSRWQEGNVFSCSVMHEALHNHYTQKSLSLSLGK
light: B1 light
notes: Rabbit variable regions on human IgG4 / kappa constant regions; also called B2A-IgG4 chimera; Parent B2A-IgG4
Regarding B2, in test [2], the “BMAX [gMFI]” value worked out at 12100 gMFI and the midpoint of the response, the EC50, lay at 0.34 ng/mL. Besides, the EC50 in test [3] is 2.74 ng/mL. In test [4], the IC50 came out at 66 ng/mL.

One may read the EC50 as the concentration that produces a half-maximal response. As a reminder, the IC50 is the midpoint of a concentration-inhibition curve. Low readings indicate greater potency, high ones weaker potency.

The record behind these values is US20240132589A1 (ONCORESPONSE, published 2024).
